{"source": "paper PMC4448125", "about": "(Nature communications, 2015)", "binders": {"B1": {"name": "His-SMT3-tagged MID(432 ~ 575aa) of human Ago2 (domain or fragment)", "chain": "not shown"}}, "molecular_target": "GST-tagged human eIF1AX (known as eIF1A), full length (human, UniProt P47813 1-144)", "sequence (P47813 whole entry)": "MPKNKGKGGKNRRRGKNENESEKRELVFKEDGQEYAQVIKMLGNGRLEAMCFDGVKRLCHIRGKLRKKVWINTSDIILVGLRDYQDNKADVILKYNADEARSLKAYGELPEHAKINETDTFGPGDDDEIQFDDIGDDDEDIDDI", "test": "pull-down"}
{"binder": "B1", "values": [{"measurement": "binding result", "result": "binds"}]}
